# Article PMC9805502
# Molecular target: HilD^Q39E,N44D,H95L mutant (recombinant) (Salmonella enterica serovar Typhimurium strain 14028s)
# Assay: mass photometry
substance,measurement,value
"HilD^Q39E,N44D,H95L mutant (recombinant) (natural protein)",stoichiometry N,2
